# In article PMC9130890:
# Target: autologous SHIV_(1157ipd3N4) gp120 monomer (SHIV_(1157ipd3N4))
binder,measurement,value
"unmutated common ancestor (UCA) of the J038 lineage (antibody, V domains shown) VH: QLQLQESGPGLVKPSETLSLTCAVSGGSISSNYWSWIRQPPGKGLEWIGRISGSGGSTDYNPSLKSRVTISTDTSKNQFSLKLSSVTAADTAVYYCAREVAEDDYGYYQPYFDYWGQGVLVTVSS VL: DIQMTQSPSSLSASVGDRVTITCRASQGISSYLAWYQQKPGKAPKLLIYAASSLQSGVPSRFSGSGSGTDFTLTISSLQPEDFATYYCQQYNSLPLTFGGGTKVEIK","neutralisation of the autologous tier 2 1157ipd3N4 pseudovirus on TZM-bl cells, IC50",4.97 µg mL^−1
